How the values were obtained:
[1] = molecular target: T1, human complement component C3 (human, UniProt P01024 23-667; P01024 672-1663); test: binding screen of Example 5; method and unit not stated
T1 construct: also called human C3

C3d = molecular target: T2, C3d (UniProt P01024 1002-1303, limits assumed); test: as above
T2 construct: domain: C3d

C3a = C3a (human, UniProt P01024 672-748); test: as above
C3b = C3b (human, UniProt P01024 23-667; P01024 749-1663); test: as above
[2] = molecular target: T1, human complement component C3; test: cell-based or functional assay
[3] = molecular target: T3, cynomolgus monkey complement component C3 (cynomolgus monkey, UniProt P01024 24-1663 (human entry)); test: cell-based or functional assay
[4] = molecular target: T1, human complement component C3; test: cell-based or functional assay; remark: listed apart in the source
[5] = molecular target: T3, cynomolgus monkey complement component …; test: cell-based or functional assay; remark: listed apart in the source
[6] = molecular target: T1, human complement component C3; test: SPR (Biacore)
Description: The binding affinities of exemplary anti-C3 antibodies to human C3 and cyno C3 were measured using a Biacore system (GE Healthcare LifeSciences). Briefly, anti-Fc antibody (Sigma-Aldrich) was immobilized on all four flow cells of a CM5 chip using amine coupling reagents (GE Healthcare LifeSciences). Antibodies were captured on flow cells 2, 3, and 4 using flow cell 1 as a reference. Concentrations ranging from 0.62-40 nM of human C3 or cyno C3 were injected at a flow rate of 50 μL/min at 37° C. Kinetic data were collected over time and fit using the simultaneous global fit equation to yield affinity constants (KD values) for each antibody.

[7] = molecular target: T1, human complement component C3; test: cell-based or functional assay; remark: listed apart in the source
Factor Bb = molecular target: T4, Factor Bb (UniProt P00751 260-764); test: binding screen of Example 5; method and unit not stated
T4 construct: domain: Factor Bb

T3 sequence (P01024 other isoform, or with tags, fused parts or gaps): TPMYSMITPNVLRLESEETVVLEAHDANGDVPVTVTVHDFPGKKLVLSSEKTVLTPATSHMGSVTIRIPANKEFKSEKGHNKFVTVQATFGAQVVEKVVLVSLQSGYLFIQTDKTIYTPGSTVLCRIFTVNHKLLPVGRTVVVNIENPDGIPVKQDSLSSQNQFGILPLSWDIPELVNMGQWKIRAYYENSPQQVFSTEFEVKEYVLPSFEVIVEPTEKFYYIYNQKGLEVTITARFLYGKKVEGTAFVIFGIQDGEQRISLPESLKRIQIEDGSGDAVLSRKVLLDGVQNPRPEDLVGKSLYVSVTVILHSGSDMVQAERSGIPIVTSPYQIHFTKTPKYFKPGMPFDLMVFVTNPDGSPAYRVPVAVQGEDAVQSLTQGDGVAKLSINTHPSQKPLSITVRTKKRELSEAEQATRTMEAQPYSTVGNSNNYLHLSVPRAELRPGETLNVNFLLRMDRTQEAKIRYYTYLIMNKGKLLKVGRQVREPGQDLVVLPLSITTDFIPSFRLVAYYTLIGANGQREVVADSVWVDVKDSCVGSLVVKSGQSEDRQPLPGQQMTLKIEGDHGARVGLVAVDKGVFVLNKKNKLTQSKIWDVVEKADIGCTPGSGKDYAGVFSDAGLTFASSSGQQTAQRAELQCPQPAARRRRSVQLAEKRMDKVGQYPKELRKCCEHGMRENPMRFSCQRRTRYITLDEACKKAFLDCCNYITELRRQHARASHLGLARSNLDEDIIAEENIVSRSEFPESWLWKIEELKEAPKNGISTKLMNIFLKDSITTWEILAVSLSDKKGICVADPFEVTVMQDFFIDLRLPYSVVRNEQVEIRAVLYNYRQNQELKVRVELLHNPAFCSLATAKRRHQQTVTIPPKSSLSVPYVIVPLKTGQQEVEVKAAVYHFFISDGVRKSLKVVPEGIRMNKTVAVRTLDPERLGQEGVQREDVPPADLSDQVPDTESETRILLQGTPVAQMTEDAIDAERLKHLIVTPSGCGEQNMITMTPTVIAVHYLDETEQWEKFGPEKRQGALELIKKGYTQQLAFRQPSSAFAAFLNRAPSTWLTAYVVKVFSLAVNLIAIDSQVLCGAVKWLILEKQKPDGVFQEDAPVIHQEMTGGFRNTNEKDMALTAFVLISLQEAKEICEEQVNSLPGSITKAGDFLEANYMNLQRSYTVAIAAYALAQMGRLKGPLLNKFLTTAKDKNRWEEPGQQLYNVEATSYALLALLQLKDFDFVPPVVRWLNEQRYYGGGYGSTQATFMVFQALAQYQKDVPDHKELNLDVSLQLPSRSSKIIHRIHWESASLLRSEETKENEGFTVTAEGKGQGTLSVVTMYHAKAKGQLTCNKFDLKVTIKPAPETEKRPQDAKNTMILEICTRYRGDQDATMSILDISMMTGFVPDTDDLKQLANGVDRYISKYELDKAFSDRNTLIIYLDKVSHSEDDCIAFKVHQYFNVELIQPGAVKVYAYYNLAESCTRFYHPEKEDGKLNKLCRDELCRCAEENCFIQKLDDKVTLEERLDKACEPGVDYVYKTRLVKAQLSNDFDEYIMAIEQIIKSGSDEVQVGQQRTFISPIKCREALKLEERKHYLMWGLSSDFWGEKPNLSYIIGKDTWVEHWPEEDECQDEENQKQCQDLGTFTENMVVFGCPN
T2 sequence (P01024 1002-1303 limits assumed): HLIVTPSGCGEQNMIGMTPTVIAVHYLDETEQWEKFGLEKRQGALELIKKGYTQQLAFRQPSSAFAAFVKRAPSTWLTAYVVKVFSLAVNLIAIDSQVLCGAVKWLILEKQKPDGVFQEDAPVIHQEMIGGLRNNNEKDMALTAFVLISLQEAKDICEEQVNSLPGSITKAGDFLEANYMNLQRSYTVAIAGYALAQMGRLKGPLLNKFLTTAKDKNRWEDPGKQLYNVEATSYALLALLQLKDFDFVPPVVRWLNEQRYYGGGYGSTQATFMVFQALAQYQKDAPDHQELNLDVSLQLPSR
T1 sequence (P01024 23-667, chain 1 of 2): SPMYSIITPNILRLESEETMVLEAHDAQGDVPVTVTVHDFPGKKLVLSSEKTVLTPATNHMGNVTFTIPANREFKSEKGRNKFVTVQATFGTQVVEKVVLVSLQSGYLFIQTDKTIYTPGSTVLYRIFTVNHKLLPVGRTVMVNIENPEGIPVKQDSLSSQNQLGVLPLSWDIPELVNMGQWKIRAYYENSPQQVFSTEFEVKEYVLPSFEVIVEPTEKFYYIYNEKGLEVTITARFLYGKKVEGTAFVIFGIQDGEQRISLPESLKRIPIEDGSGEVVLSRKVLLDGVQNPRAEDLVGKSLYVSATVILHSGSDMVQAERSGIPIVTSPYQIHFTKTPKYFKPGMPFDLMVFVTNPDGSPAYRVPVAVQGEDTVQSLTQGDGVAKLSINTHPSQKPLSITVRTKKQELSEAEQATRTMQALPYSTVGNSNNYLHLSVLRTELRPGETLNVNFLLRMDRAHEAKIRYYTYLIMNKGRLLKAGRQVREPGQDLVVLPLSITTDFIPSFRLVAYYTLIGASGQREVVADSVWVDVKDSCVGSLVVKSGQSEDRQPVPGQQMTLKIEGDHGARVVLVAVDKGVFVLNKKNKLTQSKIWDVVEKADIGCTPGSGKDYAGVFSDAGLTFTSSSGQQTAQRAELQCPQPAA
T1 sequence (P01024 672-1663, chain 2 of 2): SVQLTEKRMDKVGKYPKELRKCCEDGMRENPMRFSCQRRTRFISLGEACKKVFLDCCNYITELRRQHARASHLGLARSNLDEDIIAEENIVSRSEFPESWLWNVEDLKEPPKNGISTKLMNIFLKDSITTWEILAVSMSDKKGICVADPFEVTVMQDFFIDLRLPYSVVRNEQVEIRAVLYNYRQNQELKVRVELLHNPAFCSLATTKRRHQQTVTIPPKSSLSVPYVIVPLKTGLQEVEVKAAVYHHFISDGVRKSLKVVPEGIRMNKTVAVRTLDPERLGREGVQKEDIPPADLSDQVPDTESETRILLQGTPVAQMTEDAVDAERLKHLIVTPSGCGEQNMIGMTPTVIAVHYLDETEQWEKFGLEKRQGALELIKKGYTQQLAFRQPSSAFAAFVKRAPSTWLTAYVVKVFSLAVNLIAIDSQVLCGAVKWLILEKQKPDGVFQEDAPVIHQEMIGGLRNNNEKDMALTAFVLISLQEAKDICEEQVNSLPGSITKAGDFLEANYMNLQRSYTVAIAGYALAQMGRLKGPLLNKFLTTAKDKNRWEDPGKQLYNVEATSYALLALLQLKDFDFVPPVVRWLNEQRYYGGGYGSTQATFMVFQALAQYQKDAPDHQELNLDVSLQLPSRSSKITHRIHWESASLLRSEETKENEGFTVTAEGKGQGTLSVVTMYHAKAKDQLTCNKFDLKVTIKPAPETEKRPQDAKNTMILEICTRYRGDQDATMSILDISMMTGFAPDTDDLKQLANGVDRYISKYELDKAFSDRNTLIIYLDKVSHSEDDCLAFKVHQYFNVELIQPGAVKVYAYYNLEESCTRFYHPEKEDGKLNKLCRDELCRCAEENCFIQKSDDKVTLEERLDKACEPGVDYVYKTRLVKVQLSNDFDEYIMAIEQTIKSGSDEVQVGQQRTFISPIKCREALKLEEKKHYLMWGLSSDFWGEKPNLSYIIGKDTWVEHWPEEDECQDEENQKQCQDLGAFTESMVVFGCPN
Chain of C3b (P01024 23-667 limits assumed, chain 1 of 2): as the sequence (P01024 23-667, chain 1 of 2) above
Chain of C3b (P01024 749-1663 limits assumed, chain 2 of 2): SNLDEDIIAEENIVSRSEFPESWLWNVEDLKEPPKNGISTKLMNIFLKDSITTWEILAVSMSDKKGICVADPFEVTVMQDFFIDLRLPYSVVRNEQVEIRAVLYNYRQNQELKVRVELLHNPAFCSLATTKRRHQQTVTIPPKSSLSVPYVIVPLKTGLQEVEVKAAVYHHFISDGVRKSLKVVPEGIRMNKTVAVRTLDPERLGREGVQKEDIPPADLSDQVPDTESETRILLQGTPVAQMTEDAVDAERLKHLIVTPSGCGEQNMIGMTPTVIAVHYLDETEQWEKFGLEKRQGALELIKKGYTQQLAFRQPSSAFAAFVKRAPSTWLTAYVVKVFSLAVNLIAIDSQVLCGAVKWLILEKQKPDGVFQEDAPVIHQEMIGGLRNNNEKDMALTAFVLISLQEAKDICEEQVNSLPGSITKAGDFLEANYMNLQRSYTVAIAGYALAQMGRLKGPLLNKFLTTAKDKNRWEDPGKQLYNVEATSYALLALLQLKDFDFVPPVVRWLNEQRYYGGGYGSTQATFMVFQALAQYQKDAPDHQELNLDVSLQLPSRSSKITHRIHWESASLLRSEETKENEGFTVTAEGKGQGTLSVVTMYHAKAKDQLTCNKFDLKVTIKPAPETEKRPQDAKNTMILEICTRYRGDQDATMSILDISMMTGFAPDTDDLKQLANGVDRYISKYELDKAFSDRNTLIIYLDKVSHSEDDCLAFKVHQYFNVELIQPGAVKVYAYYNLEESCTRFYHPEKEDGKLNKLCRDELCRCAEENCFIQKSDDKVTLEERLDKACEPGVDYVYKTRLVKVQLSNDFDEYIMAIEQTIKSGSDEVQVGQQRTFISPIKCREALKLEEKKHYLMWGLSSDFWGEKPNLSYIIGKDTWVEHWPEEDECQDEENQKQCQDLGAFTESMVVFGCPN
Chain of C3a (P01024 672-748 limits assumed): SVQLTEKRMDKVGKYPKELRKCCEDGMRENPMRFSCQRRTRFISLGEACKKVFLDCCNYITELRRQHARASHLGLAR

Row | Binder | binding relative to negative control mIgG2 [1] | binding relative to negative control mIgG2 (C3d) | binding relative to negative control mIgG2 (C3a) | binding relative to negative control mIgG2 (C3b) | Kd [6] | Hemolytic Assay IC50, Human AP [2] | Hemolytic Assay IC50, Human CP [2] | Hemolytic Assay IC50, Cyno AP [3] | Hemolytic Assay IC50, Cyno CP [3] | further results
1 | antibody 28C3 (antibody, V domains shown, Mouse hybridoma antibody) VH: QVQLQQSGPELVKPGASVKISCKASGYAFNSCWMNWVKQRPGKGLEWIGRIYPGDGDTNYNGKFKGKATLTADKSSTTAYMQLSSLTSEDSAVYFCAREGRNYGYEDYWGQGTTLTVSS VL: DIVLTQSPASLAVSLGQRATISCKASQSVDYDGDSYMNWYQQKPGQPPKLLIYAASDLESGIPARFSGSGSGTDFTLNIHPVEEEDAATYYCQQANEDPRTFGGGTKLEIK | 0.66 | 0.01 | 0.11 | 0.09 | – | 8 nM | 6.5 nM | 7.8 nM | 3.4 nM | –
2 | antibody 3G8 (antibody, V domains shown, Mouse hybridoma antibody) VH: EIQLQQSGAELVKPGASVKISCMASGYSFTGYNMNWVKQSHGKGLEWIGNINPYYDSTSYNQKFKGKATLTVDKSSSTAYMQLNSLTSEDSAVYYCARENYDFVGFAYWGQGTLVTVSA VL: QIVLSQSPAILSASPGEKVTMTCRASSSVSYMHWFQQKPGSSPKPWIYVTSNLASGVPPRFSGSGSGTSYSLTISRVEAEDAATYYCQQWSTNPLTFGAGTKLELK | 0.37 | 0 | -0.01 | 0.33 | – | 6.8 nM | 10.4 nM | 20.9 nM | 102 nM | –
3 | antibody Hz38G10(G56A) (antibody, human IgG1, kappa, V domains shown, the light chain is the Hz38G10 light chain) VH: QVQLVQSGAEVKKPGASVKVSCKASGYTFTDFYMDWVRQAPGQRLEWMGYIYPHNAGTTYNQQFTGRVTITVDKSASTAYMELSSLRSEDTAVYYCARRGGFDFDYWGQGTLVTVSS VL: DIQMTQSPSSLSASVGDRVTITCKASENVDTYVSWYQQKPGKAPKLLIYGASNRYTGVPSRFSGSGSGTDFTFTISSLQPEDIATYHCGQSHSYPLTFGQGTKLEIKR | – | – | – | – | 0.27 nM | – | – | – | – | Alternative Pathway IC50 (hemolysis), Human C3 [4]: 3.9 nM; Classical Pathway IC50 (hemolysis), Human C3 [4]: 5.4 nM; Alternative Pathway IC50 (hemolysis), Cyno C3 [5]: 4.8 nM; Classical Pathway IC50 (hemolysis), Cyno C3 [5]: 0.6 nM
4 | antibody Hz38G10(N55D) (antibody, V domains shown, Variant of Hz38G10 with N55D in the heavy chain CDR2, mimicking a fully deamidated molecule) VH: QVQLVQSGAEVKKPGASVKVSCKASGYTFTDFYMDWVRQAPGQRLEWMGYIYPHDGGTTYNQQFTGRVTITVDKSASTAYMELSSLRSEDTAVYYCARRGGFDFDYWGQGTLVTVSS VL: DIQMTQSPSSLSASVGDRVTITCKASENVDTYVSWYQQKPGKAPKLLIYGASNRYTGVPSRFSGSGSGTDFTFTISSLQPEDIATYHCGQSHSYPLTFGQGTKLEIK | – | – | – | – | – | – | – | – | – | binding result [6]: binds
5 | Fab version of Hz38G10 (Fab, V domains shown) VH: QVQLVQSGAEVKKPGASVKVSCKASGYTFTDFYMDWVRQAPGQRLEWMGYIYPHNGGTTYNQQFTGRVTITVDKSASTAYMELSSLRSEDTAVYYCARRGGFDFDYWGQGTLVTVSS VL: DIQMTQSPSSLSASVGDRVTITCKASENVDTYVSWYQQKPGKAPKLLIYGASNRYTGVPSRFSGSGSGTDFTFTISSLQPEDIATYHCGQSHSYPLTFGQGTKLEIK | – | – | – | – | – | – | – | – | – | AP human C3 IC50 (hemolysis) [7]: 16 nM; CP human C3 IC50 (hemolysis) [7]: 17.8 nM
6 | antibody Hz38G10(N55Q) (antibody, V domains shown, Variant of Hz38G10) VH: QVQLVQSGAEVKKPGASVKVSCKASGYTFTDFYMDWVRQAPGQRLEWMGYIYPHQGGTTYNQQFTGRVTITVDKSASTAYMELSSLRSEDTAVYYCARRGGFDFDYWGQGTLVTVSS VL: DIQMTQSPSSLSASVGDRVTITCKASENVDTYVSWYQQKPGKAPKLLIYGASNRYTGVPSRFSGSGSGTDFTFTISSLQPEDIATYHCGQSHSYPLTFGQGTKLEIK | – | – | – | – | 0.82 nM | – | – | – | – | –
7 | antibody 38F5 (antibody, V domains shown, Mouse hybridoma antibody) VH: EVMLVESGGALVKPGGSLKLSCTASGFTFSNYAMSWVRQTPEKRLEWVAQTISSGGRYTYYPDSVKGRFTISRDNARNTLYLQMSSLRSEDTAMYYCVRRYYGNSYWYFDVWGAGTTVTVSS VL: DIVMTQSPSSLSVSAGEKVTMNCKSSQSLLNSGNQKHYLTWYQQKPGQPPKLLIYGASTRGSGVPDRFTGSGSGTDFTLTISSVQAEDLAVYYCQNDHSYPYTFGGGTKLEIK | 0.83 | 0.01 | 0 | 0.66 | – | 9.2 nM | 6.7 nM | 12.9 nM | 2.3 nM | binding relative to negative control mIgG2 (Factor Bb): -0.01
8 | antibody 63A3 (antibody, V domains shown, Mouse hybridoma antibody) VH: DVQLQESGPGLVKPSQSLSLTCSVTGYSITSGYYWNWIRQFPGNKLEWMGYIRYDGSNNYNPSLKNRISITRDTSKNQVFLKLNSVTPEDTATYYCARHYGYDGGAFDFWGQGTTLTVSS VL: DIQMTQSPASLSASVGETVTITCRTSENIYNYLVWYQQKQGKSPQLLVYNAKTLEEGVPSRFSGSGSGTQFSLKVNSLQPEDFGSYYCQHHYGTPFTFGSGTKLEIK | 0.95 | 0.01 | -0.02 | 0.83 | – | 6.5 nM | 4.1 nM | 3.4 nM | 1.6 nM | –
9 | antibody 27A8 (antibody, V domains shown) VH: QVQLLQPGAEFVKPGASVKLSCKASGYTFTDYWINWVKQRPGQGLEWIGNIYPGSTSANYNEKFKSKATLTIDTSSITAYMQLSSLTSDDSAVYYCARYGYDSWFAYWGQGTLVTVSA VL: DVVLTQTPLSLPVNIGDQASISCKSTKSLLNSDGFTYLDWFLQKPGQSPHLLIYLVSNRFSGIPDRFSGSGSETDFTLKISRVEAEDLGVYYCFQSNYLPLTFGSGTKLEIK | – | – | – | – | – | 8.5 nM | 7.6 nM | 9.6 nM | – | –

Second part, led by results:

Row | binding relative to negative control mIgG2 [1] | binding relative to negative control mIgG2 (C3d) | binding relative to negative control mIgG2 (C3a) | binding relative to negative control mIgG2 (C3b) | Kd [6] | Binder | Hemolytic Assay IC50, Human AP [2] | Hemolytic Assay IC50, Human CP [2] | Hemolytic Assay IC50, Cyno AP [3] | Hemolytic Assay IC50, Cyno CP [3] | further results
10 | – | – | – | – | 0.23 nM | antibody Hz38G10(G56T) (antibody, V domains shown, Variant of Hz38G10) VH: QVQLVQSGAEVKKPGASVKVSCKASGYTFTDFYMDWVRQAPGQRLEWMGYIYPHNTGTTYNQQFTGRVTITVDKSASTAYMELSSLRSEDTAVYYCARRGGFDFDYWGQGTLVTVSS VL: DIQMTQSPSSLSASVGDRVTITCKASENVDTYVSWYQQKPGKAPKLLIYGASNRYTGVPSRFSGSGSGTDFTFTISSLQPEDIATYHCGQSHSYPLTFGQGTKLEIK | – | – | – | – | –
11 | – | – | – | – | 6.2 nM | antibody Hz38G10(N55E) (antibody, V domains shown, Variant of Hz38G10) VH: QVQLVQSGAEVKKPGASVKVSCKASGYTFTDFYMDWVRQAPGQRLEWMGYIYPHEGGTTYNQQFTGRVTITVDKSASTAYMELSSLRSEDTAVYYCARRGGFDFDYWGQGTLVTVSS VL: DIQMTQSPSSLSASVGDRVTITCKASENVDTYVSWYQQKPGKAPKLLIYGASNRYTGVPSRFSGSGSGTDFTFTISSLQPEDIATYHCGQSHSYPLTFGQGTKLEIK | – | – | – | – | –
12 | 0.83 | -0.02 | -0.03 | 0.76 | – | antibody 62B11 (antibody, V domains shown, Mouse hybridoma antibody) VH: EVKLVESGGGLVQPGGSLKLSCAASGFTFSSYTMSWVRQTPEKRLEWVAYISSGGGTTYYPDTVKGRFTVSRDNAKNTLYLQMSSLRSEDTAMYSCARRYYRGSSLWYFDVWGAGTTVTVSS VL: DIVMTQSPSSLTVTAGEKVTMSCKSSQSLFNSGSQKNFLTWYQQRPGQPPKLLIYWASTRESGVPDRFTGSGSGTDFTLTISSVQAEDLAVYYCQNDYSYPLTFGAGTKLELK | 6.6 nM | 4.2 nM | ~11 nM | ~1 nM | binding relative to negative control mIgG2 (Factor Bb): -0.02
13 | 0.7 | 0.01 | -0.04 | 0.61 | – | antibody 62F2 (antibody, V domains shown, Mouse hybridoma antibody) VH: DVQLQESGPDLVKPSQSLSLTCTVTGYSITSGYSLHWIRQFPGNKLEWMGYIHYSGSTNYNPSLKSRISITRDTSKNQFFLKLNSVTSEDTATYHCARAWDYLDYWGQGTTLTVSS VL: DIQMTQSPASLSASVGETVTITCRASENIYSQLAWYQQKQGKSPQLLVYDAKTLAEGVPSRFSGSGSDTQFSLKIISLQPEDFGRYYCHHHFGILYTFGGGTKLEMK | 5.7 nM | 5 nM | 8.7 nM | 5.3 nM | –
